Assay results taken from patent publication US20250320312A1 (OXITOPE PHARMA B V, published 2025).

Target: PC-BSA
Experiment: ELISA (DELFIA TRF), PC-BSA coated, titrated IgG1

Sequence of PC-BSA (P02769 25-607 limits assumed, form in doubt): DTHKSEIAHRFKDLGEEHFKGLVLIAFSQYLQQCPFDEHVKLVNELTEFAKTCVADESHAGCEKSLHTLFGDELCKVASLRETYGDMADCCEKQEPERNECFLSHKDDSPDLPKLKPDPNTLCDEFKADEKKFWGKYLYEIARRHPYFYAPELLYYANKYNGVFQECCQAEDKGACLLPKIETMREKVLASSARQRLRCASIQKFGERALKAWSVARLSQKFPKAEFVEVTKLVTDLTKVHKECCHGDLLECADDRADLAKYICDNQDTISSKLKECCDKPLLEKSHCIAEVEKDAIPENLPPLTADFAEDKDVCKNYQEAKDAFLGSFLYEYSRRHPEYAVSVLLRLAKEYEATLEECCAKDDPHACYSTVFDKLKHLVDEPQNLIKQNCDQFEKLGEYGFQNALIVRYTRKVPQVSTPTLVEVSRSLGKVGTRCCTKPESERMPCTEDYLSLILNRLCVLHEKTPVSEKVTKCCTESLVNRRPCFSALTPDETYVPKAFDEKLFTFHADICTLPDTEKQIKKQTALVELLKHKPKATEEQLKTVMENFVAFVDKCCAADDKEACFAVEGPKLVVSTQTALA

Row | Binder | EC50 [nM]
1 | PcOxP_DB01_D01 (human IgG1) (antibody, V domains shown) VH: EVQLLESGGGLVQPGGSLRLSCAASGFTFSSYYMEWVRQAPGKGLEWVAASRNKANDYTTEYADSVKGRFTISRDNSKNTLYLQMNSLRAEDTAVYYCARDYYGSSYWYFDVWGQGTLVTVSS VL: DIVMTQSPDSLAVSLGERATINCTASESLYSPKHKVHYLAWYQQKPGQPPKLLIYGASNRYIGVPDRFSGSGSGTDFTLTISSLQAEDVAVYYCAQFYIYPLTFGGGTKVEIK | 0.274
2 | PcOxP_DB02_A06 (human IgG1) (antibody, V domains shown) VH: EVQLLESGGGLVQPGGSLRLSCAASGFTFSDQYMEWVRQAPGKGLEWVAASRNKANDYTTEYADSVKGRFTISRDNSKNTLYLQMNSLRAEDTAVYYCARDYYGSSYWYFDVWGQGTLVTVSS VL: DIQMTQSPSSLSASVGDRVTITCTASESLYSSKHKVHYLAWYQQKPGKAPKLLIYGLSNRYIGVPSRFSGSGSGTDFTLTISSLQPEDFATYYCAQFYSYPLTFGGGTKVEIK | 0.643
3 | PcOxP_DB03_B09 (human IgG1) (antibody, V domains shown) VH: EVQLLESGGGLVQPGGSLRLSCAASGFTFSSYYMEWVRQAPGKGLEWVAASRNKANDYTTEYADSVKGRFTISRDNSKNTLYLQMNSLRAEDTAVYYCARDYYGSSYWYFDVWGQGTLVTVSS VL: DIVMTQSPDSLAVSLGERATINCTASESLYSSKHKVHYLAWYQQKPGQPPKLLIYGAANRYIGVPDRFSGSGSGTDFTLTISSLQAEDVAVYYCAQFYSYPLTFGGGTKVEIK | 0.426
4 | PcOxP_DB01_B09 (human IgG1) (antibody, V domains shown) VH: EVQLLESGGGLVQPGGSLRLSCAASGFTFSDYYMEWVRQAPGKGLEWVAASRNKANDYTTEYADSVKGRFTISRDNSKNTLYLQMNSLRAEDTAVYYCARDYYGSSYWYFDVWGQGTLVTVSS VL: DIQMTQSPSSLSASVGDRVTITCTASESLYSSKHKVHYLAWYQQKPGKAPKLLIYGASNRYTGVPSRFSGSGSGTDFTLTISSLQPEDFATYYCAQFYHYPLTFGGGTKVEIK | 0.317
5 | PcOxP_DB01_A06 (human IgG1) (antibody, V domains shown) VH: EVQLLESGGGLVQPGGSLRLSCAASGFTFSDYYMEWVRQAPGKGLEWVAASRNKANDYTTEYADSVKGRFTISRDNSKNTLYLQMNSLRAEDTAVYYCARDYYGSSYWYFDVWGQGTLVTVSS VL: DIQMTQSPSSLSASVGDRVTITCTASESLYSSKHKVHYLAWYQQKPGKAPKLLIYGASNRYIGVPSRFSGSGSGTDFTLTISSLQPEDFATYYCAEFYSYPLTFGGGTKVEIK | 0.43
6 | PcOxP_DB01_H02 (human IgG1) (antibody, V domains shown) VH: EVQLLESGGGLVQPGGSLRLSCAASGFTFSSYYMEWVRQAPGKGLEWVAASRNKANDYTTEYADSVKGRFTISRDNSKNTLYLQMNSLRAEDTAVYYCARDYYGSSYWYFDVWGQGTLVTVSS VL: DIVMTQSPDSLAVSLGERATINCTASSSLYSSKHKVHYLAWYQQKPGQPPKLLIYGASNRYIGVPDRFSGSGSGTDFTLTISSLQAEDVAVYYCAQFYSYPLTFGGGTKVEIK | 0.43
7 | PcOxP_DB03_H08 (human IgG1) (antibody, V domains shown) VH: EVQLLESGGGLVQPGGSLRLSCAASGGTFSDFYMEWVRQAPGKGLEWVAASRNKANTYTTEYADSVKGRFTISRDNSKNTLYLQMNSLRAEDTAVYYCARDYYGSSYWYFDVWGQGTLVTVSS VL: DIQMTQSPSSLSASVGDRVTITCTASESLYSSKHKVHYLAWYQQKPGKAPKLLIYGSSNRYIGVPSRFSGSGSGTDFTLTISSLQPEDFATYYCAQFYQYPLTFGGGTKVEIK | 0.445
8 | PcOxP_DB01_H04 (human IgG1) (antibody, V domains shown) VH: EVQLLESGGGLVQPGGSLRLSCAASGFAFSDFYMEWVRQAPGKGLEWVAASRNKANDYTTEYADSVKGRFTISRDNSKNTLYLQMNSLRAEDTAVYYCARDYYGSHYWYFDVWGQGTLVTVSS VL: DIQMTQSPSSLSASVGDRVTITCTASESLYSSKHKVHYLAWYQQKPGKAPKLLIYGASNLQSGVPSRFSGSGSGTDFTLTISSLQPEDFATYYCAQFYYYPLTFGGGTKVEIK | 0.456
9 | PcOxP_DB01_C04 (human IgG1) (antibody, V domains shown) VH: EVQLLESGGGLVQPGGSLRLSCAASGFQFSDFYMEWVRQAPGKGLEWVAASRNKANDYTTEYADSVKGRFTISRDNSKNTLYLQMNSLRAEDTAVYYCARDYYGSSYWYFDVWGQGTLVTVSS VL: DIQMTQSPSSLSASVGDRVTITCTASESLYSSKHKVHYLAWYQQKPGKAPKLLIYGASNRYIGVPSRFSGSGSGTDFTLTISSLQPEDFATYYCAQFYYYPLTFGGGTKVEIK | 0.31
10 | PcOxP_DB03_A09 (human IgG1) (antibody, V domains shown) VH: EVQLLESGGGLVQPGGSLRLSCAASGFTFSDYYMEWVRQAPGKGLEWVAASRNKANDYTTEYADSVKGRFTISRDNSKNTLYLQMNSLRAEDTAVYYCARDYYGSSYWYFDVWGQGTLVTVSS VL: DIQMTQSPSSLSASVGDRVTITCTASESLYSSKHKVHYLAWYQQKPGKAPKLLIYGASNRGIGVPSRFSGSGSGTDFTLTISSLQPEDFATYYCAQFYSYPLTFGGGTKVEIK | 0.664
11 | PcOxP_DB01_F01 (human IgG1) (antibody, V domains shown) VH: EVQLLESGGGLVQPGGSLRLSCAASGFPFSDFYMEWVRQAPGKGLEWVAASRNKANDYTTEYADSVKGRFTISRDNSKNTLYLQMNSLRAEDTAVYYCARDYYGSPYWYFDVWGQGTLVTVSS VL: DIVMTQSPDSLAVSLGERATINCTASESVYSSKNKKHYLAWYQQKPGQPPKLLIYGASNRYIGVPDRFSGSGSGTDFTLTISSLQAEDVAVYYCAQFYTYPLTFGGGTKVEIK | 0.672
12 | PcOxP_DB01_G10 (human IgG1) (antibody, V domains shown) VH: EVQLLESGGGLVQPGGSLRLSCAASGFTFSDFYMEWVRQAPGKGLEWVAASRNKNNDYTTEYADSVKGRFTISRDNSKNTLYLQMNSLRAEDTAVYYCARDYYGSSYWYFDVWGQGTLVTVSS VL: DIVMTQSPDSLAVSLGERATINCKASQSLYSSKHKKHYLAWYQQKPGQPPKLLIYGASNRYPGVPDRFSGSGSGTDFTLTISSLQAEDVAVYYCAQFYRYPLTFGGGTKVEIK | 0.407

Now from value to binder:

Row | EC50 [nM] | Binder
13 | 0.299 | PcOxP_DB03_B11 (human IgG1) (antibody, V domains shown) VH: EVQLLESGGGLVQPGGSLRLSCAASGFTFSDFYVEWVRQAPGKGLEWVAASRNKANTYTTEYADSVKGRFTISRDNSKNTLYLQMNSLRAEDTAVYYCARDYYGSSYWYFDVWGQGTLVTVSS VL: DIVMTQSPDSLAVSLGERATINCTASESLYSSKHKVHYLAWYQQKPGQPPKLLIYGAQNRYIGVPDRFSGSGSGTDFTLTISSLQAEDVAVYYCGQFYSYPLTFGGGTKVEIK
14 | 0.285 | PcOxP_DB03_C10 (human IgG1) (antibody, V domains shown) VH: EVQLLESGGGLVQPGGSLRLSCAASGFTFSSYYMEWVRQAPGKGLEWVAASRNKANEYTTEYADSVKGRFTISRDNSKNTLYLQMNSLRAEDTAVYYCARDYYGSSYWYFDVWGQGTLVTVSS VL: DIVMTQSPDSLAVSLGERATINCTASESLYSSKHKVHYLAWYQQKPGQPPKLLIYGAGNRYIGVPDRFSGSGSGTDFTLTISSLQAEDVAVYYCAQFYSYPLTFGGGTKVEIK
15 | 0.417 | PcOxP_DB01_E05 (human IgG1) (antibody, V domains shown) VH: EVQLLESGGGLVQPGGSLRLSCAASGFTFSDYYMEWVRQAPGKGLEWVAASRNKANDYTTEYADSVKGRFTISRDNSKNTLYLQMNSLRAEDTAVYYCARDYYGSSYWYFDVWGQGTLVTVSS VL: DIQMTQSPSSLSASVGDRVTITCTASESLYSSKHKVNYLAWYQQKPGKAPKLLIYGASNRYIGVPSRFSGSGSGTDFTLTISSLQPEDFATYYCAQFYQYPLTFGGGTKVEIK
16 | 0.436 | PcOxP_DB03_C12 (human IgG1) (antibody, V domains shown) VH: EVQLLESGGGLVQPGGSLRLSCAASGFTFSDYYMEWVRQAPGKGLEWVAASRNKANDYTTEYADSVKGRFTISRDNSKNTLYLQMNSLRAEDTAVYYCARDYYGSSYWYFDVWGQGTLVTVSS VL: DIQMTQSPSSLSASVGDRVTITCTASESLYSSKHKVHYLAWYQQKPGKAPKLLIYGASNRYGGVPSRFSGSGSGTDFTLTISSLQPEDFATYYCAQFYSYPLTFGGGTKVEIK
17 | 0.282 | PcOxP_DB04_E05 (human IgG1) (antibody, V domains shown) VH: EVQLLESGGGLVQPGGSLRLSCAASGNTFSDFYMEWVRQAPGKGLEWVAASRNKANYYTTEYADSVKGRFTISRDNSKNTLYLQMNSLRAEDTAVYYCARDYYGSSYWYFDVWGQGTLVTVSS VL: DIVMTQSPDSLAVSLGERATINCTASESLYSSKHKVHYLAWYQQKPGQPPKLLIYGASNRYIGVPDRFSGSGSGTDFTLTISSLQAEDVAVYYCAQFYSYPLTFGGGTKVEIK
18 | 0.242 | PcOxP_DB01_D11 (human IgG1) (antibody, V domains shown) VH: EVQLLESGGGLVQPGGSLRLSCAASGFTFSSYYMEWVRQAPGKGLEWVAASRNKANDYTTEYADSVKGRFTISRDNSKNTLYLQMNSLRAEDTAVYYCARDYYGSSYWYNDVWGQGTLVTVSS VL: DIVMTQSPDSLAVSLGERATINCTASESLYSSKWKVHYLAWYQQKPGQPPKLLIYGASNRYIGVPDRFSGSGSGTDFTLTISSLQAEDVAVYYCAQFYSYPLTFGGGTKVEIK
19 | 0.423 | PcOxP_DB02_H07 (human IgG1) (antibody, V domains shown) VH: EVQLLESGGGLVQPGGSLRLSCAASGFTFSSYYMEWVRQAPGKGLEWVAASRNKANDYTTEYADSVKGRFTISRDNSKNTLYLQMNSLRAEDTAVYYCARDYYGSSYWYFDVWGQGTLVTVSS VL: DIVMTQSPDSLAVSLGERATINCTASESLYSSKHKVHYLAWYQQKPGQPPKLLIYGASNRYNGVPDRFSGSGSGTDFTLTISSLQAEDVAVYYCAQFYTYPLTFGGGTKVEIK
20 | 0.413 | PcOxP_DB04_A11 (human IgG1) (antibody, V domains shown) VH: EVQLLESGGGLVQPGGSLRLSCAASGFTFSDYYMEWVRQAPGKGLEWVAASRNKANTYTTEYADSVKGRFTISRDNSKNTLYLQMNSLRAEDTAVYYCARDYYGSSYWYFDVWGQGTLVTVSS VL: DIVMTQSPDSLAVSLGERATINCTASESVLSSKHKKNYLAWYQQKPGQPPKLLIYGASTRYIGVPDRFSGSGSGTDFTLTISSLQAEDVAVYYCAQFYSYPLTFGGGTKVEIK
21 | 0.339 | PcOxP_DB03_C03 (human IgG1) (antibody, V domains shown) VH: EVQLLESGGGLVQPGGSLRLSCAASGFTFSDFYMEWVRQAPGKGLEWVAASRNKYNDYTTEYADSVKGRFTISRDNSKNTLYLQMNSLRAEDTAVYYCARDYYGSSYWYFDVWGQGTLVTVSS VL: DIQMTQSPSSLSASVGDRVTITCTASESLYSSKHKVHYLAWYQQKPGKAPKLLIYGASNRYIGVPSRFSGSGSGTDFTLTISSLQPEDFATYYCAQFYSYPLTFGGGTKVEIK
22 | 0.64 | PcOxP_DB02_C01 (human IgG1) (antibody, V domains shown) VH: EVQLLESGGGLVQPGGSLRLSCAASGFTFSDAYMEWVRQAPGKGLEWVAASRNKANDYTTEYADSVKGRFTISRDNSKNTLYLQMNSLRAEDTAVYYCARDYYGSSYWYFDVWGQGTLVTVSS VL: DIQMTQSPSSLSASVGDRVTITCTASESLYSSKHKVHYLAWYQQKPGKAPKLLIYGASNRYIGVPSRFSGSGSGTDFTLTISSLQPEDFATYYCAQFYSYPLTFGGGTKVEIK
